For two proteins, Km results are on record in doi:10.1101/586255v1.

Substrate in this data set: N[C@@H](CO)C(=O)O
Put plainly: purified protein, by the assay type. As to conditions: pH 7.6; 37.0 °C.

B1: EcSerRS (Escherichia coli K-12) (protein)
chain: MLDPNLLRNEPDAVAEKLARRGFKLDVDKLGALEERRKVLQVKTENLQAERNSRSKSIGQAKARGEDIEPLRLEVNKLGEELDAAKAELDALQAEIRDIALTIPNLPADEVPVGKDENDNVEVSRWGTPREFDFEVRDHVTLGEMHSGLDFAAAVKLTGSRFVVMKGQIARMHRALSQFMLDLHTEQHGYSENYVPYLVNQDTLYGTGQLPKFAGDLFHTRPLEEEADTSNYALIPTAEVPLTNLVRGEIIDEDDLPIKMTAHTPCFRSEAGSYGRDTRGLIRMHQFDKVEMVQIVRPEDSMAALEEMTGHAEKVLQLLGLPYRKIILCTGDMGFGACKTYDLEVWIPAQNTYREISSCSNVWDFQARRMQARCRSKSDKKTRLVHTLNGSGLAVGRTLVAVMENYQQADGRIEVPEVLRPYMNGLEYIG
As for B1, the Michaelis constant (Km) came to 4.706 ± 0.706 mM.

B2: SaSerRS (Staphylococcus aureus subsp. aureus NCTC 8325) (protein)
chain: MLDIRLFRNEPDTVKSKIELRGDDPKVVDEILELDEQRRKLISATEEMKARRNKVSEEIALKKRNKENADDVIAEMRTLGDDIKEKDSQLNEIDNKMTGILCRIPNLISDDVPQGESDEDNVEVKKWGTPREFSFEPKAHWDIVEELKMADFDRAAKVSGARFVYLTNEGAQLERALMNYMITKHTTQHGYTEMMVPQLVNADTMYGTGQLPKFEEDLFKVEKEGLYTIPTAEVPLTNFYRNEIIQPGVLPEKFTGQSACFRSEAGSAGRDTRGLIRLHQFDKVEMVRFEQPEDSWNALEEMTTNAEAILEELGLPYRRVILCTGDIGFSASKTYDLEVWLPSYNDYKEISSCSNCTDFQARRANIRFKRDKAAKPELAHTLNGSGLAVGRTFAAIVENYQNEDGTVTIPEALVPFMGGKTQISKPVK
For B2, the Km was 4.39 ± 0.654 mM.

In general, Km refers to the concentration of substrate that gives half-maximal velocity.
